For this data set, the target named is mB*UbxN51A (UniProt P83949-2 1-380, N336A). Description: EMSA; 20 mM HEPES pH 7.9, 1.4 mM MgCl2, 1 mM ZnSO4, 40 mM KCl, 0.1 mM EDTA, 5% glycerol, 0.2 ug poly(dI-dC), 0.1 ug BSA, 10 mM DTT, 0.1% NP40, 30 ul, 20 min; gel 6% acrylamide 0.5x TBE at 4 C. As to conditions: protein: recombinant; tags: His, myc-BirA* (N-terminal fusion); label: 5'-Cy5; blunt. Background: In EMSA bound probe runs differently from free probe, usually more slowly.

Consider one molecule from PMC7069958, “Multi-level and lineage-specific interactomes of the Hox transcription factor Ubx contribute to its functional specificity”.

mB*UbxN51A, sequence (P83949 other isoform, or with tags, fused parts or gaps N336A): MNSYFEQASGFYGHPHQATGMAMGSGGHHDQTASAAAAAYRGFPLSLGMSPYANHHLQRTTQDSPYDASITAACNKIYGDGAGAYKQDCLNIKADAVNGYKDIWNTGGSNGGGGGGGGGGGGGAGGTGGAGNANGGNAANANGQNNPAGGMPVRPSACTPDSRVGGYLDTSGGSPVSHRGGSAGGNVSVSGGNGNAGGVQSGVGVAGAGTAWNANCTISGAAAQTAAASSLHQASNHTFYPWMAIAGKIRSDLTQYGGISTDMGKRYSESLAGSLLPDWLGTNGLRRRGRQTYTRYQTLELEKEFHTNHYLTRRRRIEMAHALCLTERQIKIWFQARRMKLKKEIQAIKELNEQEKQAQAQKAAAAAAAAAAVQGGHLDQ

B1: Ubx consensus site probe (dsDNA)
DNA 1: TTCAGAGCGAATGATTTATGACCGGTCAAG
DNA 2: CTTGACCGGTCATAAATCATTCGCTCTGAA
Regarding B1, the binding result was “no binding”.
